Measured values taken from patent CN118005785A (BEILAI PHARMACEUTICAL CO LTD, dated 2024).

How the values were obtained:
[1] = biological target: T1, Human IL-17A重组蛋白 (IL-17A-His) (human, UniProt Q16552 24-155, limits assumed, biotinylated in the ELISA of paragraph 276 (Biotin-IL-17A-His); site not stated); assay: cell-based or functional assay
T1 sequence: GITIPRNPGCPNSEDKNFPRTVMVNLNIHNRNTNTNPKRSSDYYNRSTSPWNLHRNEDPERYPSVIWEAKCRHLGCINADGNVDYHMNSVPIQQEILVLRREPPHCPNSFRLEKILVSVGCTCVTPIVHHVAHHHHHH

[2] = biological target: T1, Human IL-17A重组蛋白 (IL-17A-His); assay: BLI, ForteBio OCTET R2, IL-17A-His immobilised on the sensor at 5 ug/mL, antibody 50-3.13 nM, 25℃
[3] = biological target: T1, Human IL-17A重组蛋白 (IL-17A-His); assay: ELISA, antibody coated at 2 ug/mL, Biotin-IL-17A-His titrated from 10 ug/mL, HRP-Streptavidin detection

B1: Ixekizumab (antibody, human IgG4 S228P, kappa, V domains shown)
VH: QVQLVQSGAEVKKPGSSVKVSCKASGYSFTDYHIHWVRQAPGQGLEWMGVINPMYGTTDYNQRFKGRVTITADESTSTAYMELSSLRSEDTAVYYCARYDYFTGTGVYWGQGTLVTVSS
VL: DIVMTQTPLSLSVTPGQPASISCRSSRSLVHSRGNTYLHWYLQKPGQSPQLLIYKVSNRFIGVPDRFSGSGSGTDFTLKISRVEAEDVGVYYCSQSTHLPFTFGQGTKLEIKR
notes: Made in-house in 293F cells from the synthesised variable regions cloned into hIgG4 and hIgKc vectors; purified on Protein A; also called 阳性对照抗体Ixekizumab; 阳性抗体
IC50, luciferase activity of 293F-IL-17RA-IL-17Rc-ACT1-NFκB-Luc reporter cells stimulated with 0.1 μg/mL IL-17A [1]: 2.23 nM
Kd [2]: 0.391 nM
EC50 [3]: 10.1 µg/mL
